In PMC5830916:

How the values were obtained:
14-3-3 ε = 14-3-3 ε (UniProt P62258); assay: GFP-Trap co-IP, Myc immunoblot; conditions: reference: wild type
14-3-3 ζ = 14-3-3 ζ (UniProt P63104); assay: GFP-Trap co-IP, Myc immunoblot; conditions: reference: wild type

binding against the reference (14-3-3 ε; sites S411) | binding against the reference (14-3-3 ζ; sites S411) | binding against the reference (14-3-3 ε; sites S395) | binding against the reference (14-3-3 ζ; sites S395) | Substance
lost | lost |  |  | E2F7 (from UniProt Q6S7F2) S411A
 |  | lost | lost | E2F8 (from UniProt Q58FA4) S395A
